Source: patent US20160297889A1 (TORAY INDUSTRIES, published 2016)

T1: CAPRIN-1 protein expressed on the membrane surface of human cancer cells (human, UniProt Q14444 2-709)
T1 sequence (looked up): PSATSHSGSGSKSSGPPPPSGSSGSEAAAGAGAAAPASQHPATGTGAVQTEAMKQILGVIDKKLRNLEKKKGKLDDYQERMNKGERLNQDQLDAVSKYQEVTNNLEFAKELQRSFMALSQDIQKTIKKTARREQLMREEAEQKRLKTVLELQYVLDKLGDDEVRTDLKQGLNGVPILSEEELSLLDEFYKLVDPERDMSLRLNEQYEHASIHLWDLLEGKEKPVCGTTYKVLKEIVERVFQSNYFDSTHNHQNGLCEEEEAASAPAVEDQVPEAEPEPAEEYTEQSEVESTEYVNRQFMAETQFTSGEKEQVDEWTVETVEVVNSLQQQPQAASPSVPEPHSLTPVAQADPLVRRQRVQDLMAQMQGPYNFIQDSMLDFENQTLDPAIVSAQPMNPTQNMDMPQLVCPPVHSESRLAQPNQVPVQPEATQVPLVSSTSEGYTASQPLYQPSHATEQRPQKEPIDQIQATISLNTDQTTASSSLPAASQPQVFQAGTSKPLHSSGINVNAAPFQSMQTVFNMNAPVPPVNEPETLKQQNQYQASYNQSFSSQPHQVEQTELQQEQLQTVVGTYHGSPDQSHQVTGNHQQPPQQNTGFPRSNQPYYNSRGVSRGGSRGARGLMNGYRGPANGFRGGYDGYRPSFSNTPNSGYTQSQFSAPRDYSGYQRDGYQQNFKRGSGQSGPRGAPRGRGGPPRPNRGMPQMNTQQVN


Target: T1, CAPRIN-1 protein expressed on the …
Assay: cell-based or functional assay

Binder | ADCC cytotoxic activity (51Cr release) on 22Rv1 [%] | ADCC cytotoxic activity (51Cr release) on A-673 [%] | ADCC cytotoxic activity (51Cr release) on BT-474 [%] | ADCC cytotoxic activity (51Cr release) on Caki-2 [%] | ADCC cytotoxic activity (51Cr release) on FaDu [%] | ADCC cytotoxic activity (51Cr release) on G-361 [%] | ADCC cytotoxic activity (51Cr release) on HEC-1-A [%] | ADCC cytotoxic activity (51Cr release) on HT-29 [%] | ADCC cytotoxic activity (51Cr release) on HT-1080 [%] | ADCC cytotoxic activity (51Cr release) on HT-1376 [%] | ADCC cytotoxic activity (51Cr release) on Hep3B [%] | ADCC cytotoxic activity (51Cr release) on IM-9 [%] | ADCC cytotoxic activity (51Cr release) on MDA-MB-361 [%] | ADCC cytotoxic activity (51Cr release) on NCI-H2452 [%] | ADCC cytotoxic activity (51Cr release) on NCI-N87 [%] | ADCC cytotoxic activity (51Cr release) on NT/D1 [%] | ADCC cytotoxic activity (51Cr release) on OCI-AML5 [%] | ADCC cytotoxic activity (51Cr release) on OE33 [%] | ADCC cytotoxic activity (51Cr release) on Panc10.5 [%] | ADCC cytotoxic activity (51Cr release) on QG56 [%] | other results
humanized antibody #1 (antibody, V domains shown) VH: EVQLVESGGGLVQPGGSLRLSCAASGFSLSSHSLGWVRQAPGKGLEWIGDIRSGGSAYYANWAKGRFTISRDNSKNTLYLQMNSLRAEDTAVYYCTRTNGPSDLTNRLDLWGQGTLVTVSS VL: AIQMTQSPSSLSASVGDRVTINCQASQSLYNNENLAWFQQKPGKAPKRLIYGASTLASGVSSRFSGSGSGTDFTLTISSLQPEDFAIYYCLGEFSCGSADCFAFGGGTKVEIK | ≥ 38 | ≥ 40 | ≥ 46 | ≥ 26 | ≥ 35 | ≥ 15 | ≥ 40 | ≥ 35 | ≥ 20 | ≥ 28 | ≥ 21 | ≥ 27 | ≥ 40 | ≥ 31 | ≥ 34 | ≥ 25 | ≥ 15 | ≥ 30 | ≥ 24 | ≥ 38 | ADCC cytotoxic activity (51Cr release) on RD-ES: ≥ 31%; ADCC cytotoxic activity (51Cr release) on RPM11666: ≥ 30%; ADCC cytotoxic activity (51Cr release) on Ramos: ≥ 15%; ADCC cytotoxic activity (51Cr release) on SKOV3: ≥ 27%; ADCC cytotoxic activity (51Cr release) on T24: ≥ 30%; ADCC cytotoxic activity (51Cr release) on TGBC14TKB: ≥ 25%; ADCC cytotoxic activity (51Cr release) on TT: ≥ 30%; ADCC cytotoxic activity (51Cr release) on U-87MG: ≥ 24%
humanized antibody #3 (antibody, V domains shown) VH: EVQLVESGGGLVQPGGSLRLSCAASGFSLSSHSLGWVRQAPGKGLEWIGDIRSGGSAYYANWAKGRFTISRDNSKNTLYLQMNSLRAEDTAVYYCTRTNGPSDLTNRLDLWGQGTLVTVSS VL: EQVLTQSPSSLSASVGDRVTINCQASQSLYNNENLAWFQQKPGKVPKRLIYGASTLASGVSSRFSGSGSGTEFTLTISNLQPEDFAIYYCLGEFSCGSADCFAFGGGTKVEIK | ≥ 45 | ≥ 46 | ≥ 50 | ≥ 33 | ≥ 40 | ≥ 21 | ≥ 45 | ≥ 40 | ≥ 25 | ≥ 40 | ≥ 25 | ≥ 30 | ≥ 45 | ≥ 39 | ≥ 38 | ≥ 30 | ≥ 18 | ≥ 33 | ≥ 30 | ≥ 42 | ADCC cytotoxic activity (51Cr release) on RD-ES: ≥ 40%; ADCC cytotoxic activity (51Cr release) on RPM11666: ≥ 36%; ADCC cytotoxic activity (51Cr release) on Ramos: ≥ 18%; ADCC cytotoxic activity (51Cr release) on SKOV3: ≥ 31%; ADCC cytotoxic activity (51Cr release) on T24: ≥ 33%; ADCC cytotoxic activity (51Cr release) on TGBC14TKB: ≥ 30%; ADCC cytotoxic activity (51Cr release) on TT: ≥ 35%; ADCC cytotoxic activity (51Cr release) on U-87MG: ≥ 29%
humanized antibody #4 (antibody, V domains shown) VH: EVQLVESGGGLVQPGGSLRLSCAASGFSLSSHSLGWVRQAPGKGLEWIGDIRSGGSAYYANWAKGRFTISRDNSKNTLYLQMNSLRAEDTAVYFCTRTNGPSDLTNRLDLWGQGTLVTVSS VL: EIVLTQSPSSLSASVGDRVTINCQASQSLYNNENLAWFQQKPGKVPKRLIYGASTLASGVSSRFSGSGSGTEFTLTISNLQPEDFATYYCLGEFSCGSADCFAFGGGTKVEIK | ≥ 45 | ≥ 46 | ≥ 50 | ≥ 33 | ≥ 40 | ≥ 21 | ≥ 45 | ≥ 40 | ≥ 25 | ≥ 40 | ≥ 25 | ≥ 30 | ≥ 45 | ≥ 39 | ≥ 38 | ≥ 30 | ≥ 18 | ≥ 33 | ≥ 30 | ≥ 42 | ADCC cytotoxic activity (51Cr release) on RD-ES: ≥ 40%; ADCC cytotoxic activity (51Cr release) on RPM11666: ≥ 36%; ADCC cytotoxic activity (51Cr release) on Ramos: ≥ 18%; ADCC cytotoxic activity (51Cr release) on SKOV3: ≥ 31%; ADCC cytotoxic activity (51Cr release) on T24: ≥ 33%; ADCC cytotoxic activity (51Cr release) on TGBC14TKB: ≥ 30%; ADCC cytotoxic activity (51Cr release) on TT: ≥ 35%; ADCC cytotoxic activity (51Cr release) on U-87MG: ≥ 29%
